Assay [1] has as its target T1, recombinant human ROR1-His (Sino Biological, 13968-H08H) (human, UniProt Q01973 30-406).
T1 construct: extracellular domain; Bought protein; also called ROR1-HIS protein; not shown: His tag
In words: BLI (Octet), ROR1-His on Anti-Penta-His or AR2G biosensor, IgG 30 to 0.021 nM, 1:1 fit. The procedure: A 96-well black microplate (greiner bio one) was mounted on a biosensor tray case, and 200 10×KB or DW was added to each of 8 wells. Then Anti Penta His biosensors or 8 AR2G biosensors (ForteBio, USA) were inserted to hydrate for 10 minutes. 600 of the assay samples were diluted 2-fold or 3-fold to the appropriate assay concentrations, using 1×KB or 10×KB to 30 to 0.021 nM. To immobilize the antigen, recombinant human ROR1-His (Sino Biological, 13968-H08H) was diluted to 1 /ML with 10×KB or Sodium Acetate pH5 buffer. Immobilization was fixed at a threshold of 0.3 nm in the loading step. The association assay was carried out for 3 to 10 minutes, and the dissociation assay was carried out for 20 minutes. According to the Octet program template, the buffer was placed in a new 96-well black microplate according to order. As Baseline1, 200 10×KB or DW was placed. Then 200 each of 1 /mL of the antigen to be loaded, the ROR1-HIS protein, was added. As Baseline2, 200 10×KB or 1×KB was placed. Then to each well 30 to 0.021 nM of the diluted antibody and 200 each of 10×KB buffer or 1×KB corresponding to a reference blank was added. The temperature of the test plate was fixed at 30° C. After all of the samples were introduced, the equipment was started, and after the assay was completed, results were uploaded to the Octet Analysis 90 software, with KD values analyzed through 1:1 fitting. By obtaining KD values through the Octet assay method, it was confirmed that the anti-ROR1 antibody had strong binding potential to ROR1 antigen.

In assay [2] the target is T2, mouse ROR1 over-expressed on CHO cells (CHO-mouse ROR1) (mouse, UniProt Q9Z139 30-937).
T2 construct: whole, on cells; also called cell surface-expressed mouse ROR1
The experiment in a line: flow cytometry on CHO-S cells transiently over-expressing mouse ROR1, FITC anti-human Fc detection, MFI ratio to 2nd Ab alone. The source says:
(§1) For this experiment, using cell lines (FIG. 5 and FIG. 7, respectively) transiently (CHO-human ROR1, CHO-human ROR2, CHO-mouse ROR1) or stably (MC38-human ROR1) transfected with ROR1 gene to achieve artificial over-expression of ROR1 protein, an ROR1-expressing cell line (JeKo-1, Mino) (FIG. 6), a non ROR1-expressing cell line (MCF7) (FIG. 6) and a FACSCalibur (BD Biosciences) device was used to measure the degree to which anti-ROR1 antibody and ROR1 were bound, as follows. […] JeKo-1, Mino, CHO-human ROR1, CHO-mouse ROR1 and MC38-human ROR1 are all cell lines which express human ROR1 or mouse ROR1.
(§2) Specifically, after dissociating each cell line and washing in PBS, the number of cells was counted and adjusted to 2×10⁵ cells/200 PBS. Then the respective ROR1 monoclonal antibodies prepared in Embodiment 3 were diluted 5 times from 10 /mL or 10 /mL, then reacted for 1 hour at 4° C. […] After reacting the cells were washed in PBS and analyzed using a FACSCalibur device. […] The shifted readings for the respective experimental groups treated with ROR1 monoclonal antibody were compared against the shifted reading for the control group (MFI Ratio: MFI of anti-ROR1/MFI of 2nd Ab).

Assay [3] has as its target T3, human ROR2 over-expressed on CHO cells (CHO-human ROR2) (human, UniProt Q01974 34-943).
T3 construct: whole, on cells; Negative control; also called family protein human ROR2
In words: flow cytometry on CHO-S cells transiently over-expressing human ROR2, FITC anti-human Fc detection, MFI ratio to 2nd Ab alone.
From the text: as §1
(§3) Specifically, after dissociating each cell line and washing in PBS, the number of cells was counted and adjusted to 2×10⁵ cells/200 PBS. Then the respective ROR1 monoclonal antibodies prepared in Embodiment 3 were diluted 5 times from 10 /mL or 10 /mL, then reacted for 1 hour at 4° C. After the reaction, the cells were washed in PBS, then FITC-marked constant region (Fc) specific antibody (Goat anti-human IgG FITC conjugate, Fc specific, Sigma, F9512, concentration 20 mg/ml) was suspended in 2 /1×10⁵ cells/200 PBS and reacted for 1 hour at 4° C. As for identification of the degree of expression of the transiently over-expressed human ROR1, human ROR2 and mouse ROR1, a commercially available FACS analysis antibody (anti-ROR1: R&D Systems, FAB 2000G, anti-ROR2: R&D, FAB20641P) was used. After reacting the cells were washed in PBS and analyzed using a FACSCalibur device. The negative control (2nd Ab) was only treated with FITC-marked constant region (Fc) specific antibody. The shifted readings for the respective experimental groups treated with ROR1 monoclonal antibody were compared against the shifted reading for the control group (MFI Ratio: MFI of anti-ROR1/MFI of 2nd Ab).

The target of assay [4] is T4, recombinant mouse ROR1 protein (Acrobiosystems, RO1-M5221) (mouse, UniProt Q9Z139 30-403).
T4 construct: Bought protein; also called mouse ROR1 antigen
In words: ELISA, wells coated with recombinant mouse ROR1 protein, IgG titrated, HRP anti-Fab detection, OD (450-650nm). The procedure: (§4) Anti-ROR1 antibody antigen binding affinity was assessed using an ELISA-based solution binding assay. Specifically, a 96-well microtiter plate (Nunc-Immuno Plates), NUNC) was coated for 16 hours at 4° C. with the ROR1 protein described below at a concentration of 1 in PBS solution, and non-specific binding sites were blocked for 2 hours with 3% BSA (bovine serum albumin). Here, the ROR1 protein used was, in the case of human ROR1, the ROR1-Fc or recombinant human ROR1-His (Sino Biological, 13968-H08H) of Embodiment 1. The ROR1-His used in ELISA, as stated in the above sentence, was a protein from the Sino Biological company (13968-H08H), and the ROR1-His of Embodiment 1 or recombinant mouse ROR1 protein was used (Acrobiosystems, RO1-M5221-100 )
(§5) Subsequently, the anti-ROR1 antibodies prepared in Embodiment 3 were added at the concentrations stated in FIG. 2 to a 96-well microtiter plate, and binding capacity was analyzed using ELISA as follows. Specifically, after incubating for 2 hours, the plate was washed 5 times with PBS containing 0.05% Tween 20, then HRP-conjugated Fab multiclonal antibody reagent (Perce, 31414) was diluted to 1:10,000 and placed in the washed microtiter plate. After reacting for 1 hour at 37° C., the ROR1 antibodies bonded to the plate were detected. After the reaction, color development was performed using TMB (Tetramethylbenzidine, Sigma, T0440). The enzymatic reaction was stopped using 0.5 mol/L sulfuric acid, and absorbance at 450 nm and 650 nm was measured (450 nm-650 nm) using a micro plate reader (Molecular Device)

The target of assay [5] is T1, recombinant human ROR1-His (Sino …). In words: ELISA, wells coated with human ROR1 protein (sheet: 'human ROR1'; text: ROR1-Fc or ROR1-His), IgG titrated, OD(450nm-650nm); x axis 'conc(nM)' numbered -5 to 2 (log10). The procedure:
as §4, §5

For assay [6] the target is unchanged. In words: ELISA, wells coated with human ROR1 protein (sheet: 'human ROR1'; text: ROR1-Fc or ROR1-His), IgG titrated, HRP anti-Fab detection, OD (450-650nm). The procedure:
as §4, §5

In assay [7] the target is T5, human ROR1 expressed on the cell surface (human, UniProt Q01973 30-937).
T5 construct: whole, on cells; also called cell surface-expressed ROR1 antigen; ROR1 on JeKo-1, Mino, CHO-human ROR1, MC38-human ROR1 and other cancer cell lines
The experiment in a line: flow cytometry on MC38-human ROR1 cells, IgG titrated, FITC anti-human Fc detection, MFI ratio to 2nd Ab alone; log axis whose first tick is printed 0.
From the text: as §1, §3

Assay [8] deals with T3, human ROR2 over-expressed on CHO cells …. In words: flow cytometry, CHO-human ROR2 cells.
From the text: as §1, §2

The target in assay [9] is T2, mouse ROR1 over-expressed on CHO cells …. In words: flow cytometry, CHO-mouse ROR1 cells.
From the text: as §1, §3

T1 sequence (Q01973 30-406): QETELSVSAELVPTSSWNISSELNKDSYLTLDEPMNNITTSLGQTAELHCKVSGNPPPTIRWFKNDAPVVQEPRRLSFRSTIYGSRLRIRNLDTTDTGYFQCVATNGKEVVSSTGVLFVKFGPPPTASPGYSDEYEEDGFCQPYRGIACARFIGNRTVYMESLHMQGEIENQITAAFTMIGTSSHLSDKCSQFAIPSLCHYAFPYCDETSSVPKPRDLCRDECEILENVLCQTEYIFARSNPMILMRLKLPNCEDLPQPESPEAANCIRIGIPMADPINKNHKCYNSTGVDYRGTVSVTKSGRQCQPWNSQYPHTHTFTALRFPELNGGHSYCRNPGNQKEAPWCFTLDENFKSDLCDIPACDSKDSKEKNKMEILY
T2 sequence (Q9Z139 30-937): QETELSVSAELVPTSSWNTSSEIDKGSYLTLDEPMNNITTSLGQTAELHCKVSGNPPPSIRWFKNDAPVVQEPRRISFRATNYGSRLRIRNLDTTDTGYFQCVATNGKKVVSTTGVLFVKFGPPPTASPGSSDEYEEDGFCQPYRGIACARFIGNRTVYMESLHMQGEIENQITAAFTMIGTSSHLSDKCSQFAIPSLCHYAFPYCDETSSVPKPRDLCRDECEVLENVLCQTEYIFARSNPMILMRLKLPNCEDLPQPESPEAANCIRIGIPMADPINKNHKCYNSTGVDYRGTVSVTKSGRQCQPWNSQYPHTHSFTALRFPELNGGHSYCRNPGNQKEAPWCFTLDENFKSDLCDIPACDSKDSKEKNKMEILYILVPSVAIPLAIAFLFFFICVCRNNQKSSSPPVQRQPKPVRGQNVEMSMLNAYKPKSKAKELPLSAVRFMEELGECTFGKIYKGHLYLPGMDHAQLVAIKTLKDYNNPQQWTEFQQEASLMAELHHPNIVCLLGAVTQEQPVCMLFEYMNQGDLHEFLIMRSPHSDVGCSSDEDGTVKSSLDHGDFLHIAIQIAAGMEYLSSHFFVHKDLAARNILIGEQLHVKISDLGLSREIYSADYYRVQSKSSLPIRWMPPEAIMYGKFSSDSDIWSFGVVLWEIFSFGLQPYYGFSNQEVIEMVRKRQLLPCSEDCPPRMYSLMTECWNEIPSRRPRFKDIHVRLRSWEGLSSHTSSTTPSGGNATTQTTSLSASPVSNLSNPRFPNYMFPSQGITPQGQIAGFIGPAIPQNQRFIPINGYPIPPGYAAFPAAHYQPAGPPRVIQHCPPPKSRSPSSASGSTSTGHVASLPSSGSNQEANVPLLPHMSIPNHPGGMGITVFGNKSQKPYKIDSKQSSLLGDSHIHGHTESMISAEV
T4 sequence (Q9Z139 30-403 limits assumed): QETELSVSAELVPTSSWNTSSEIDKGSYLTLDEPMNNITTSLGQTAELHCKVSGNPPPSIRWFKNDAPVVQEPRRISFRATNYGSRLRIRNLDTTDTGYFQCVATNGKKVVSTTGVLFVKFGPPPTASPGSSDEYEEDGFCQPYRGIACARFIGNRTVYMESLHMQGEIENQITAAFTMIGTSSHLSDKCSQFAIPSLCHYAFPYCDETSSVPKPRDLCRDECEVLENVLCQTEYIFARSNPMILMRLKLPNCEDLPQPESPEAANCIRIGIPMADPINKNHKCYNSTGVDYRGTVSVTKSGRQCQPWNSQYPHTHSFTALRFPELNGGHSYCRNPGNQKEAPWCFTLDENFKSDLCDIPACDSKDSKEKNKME
T3 sequence (Q01974 34-943): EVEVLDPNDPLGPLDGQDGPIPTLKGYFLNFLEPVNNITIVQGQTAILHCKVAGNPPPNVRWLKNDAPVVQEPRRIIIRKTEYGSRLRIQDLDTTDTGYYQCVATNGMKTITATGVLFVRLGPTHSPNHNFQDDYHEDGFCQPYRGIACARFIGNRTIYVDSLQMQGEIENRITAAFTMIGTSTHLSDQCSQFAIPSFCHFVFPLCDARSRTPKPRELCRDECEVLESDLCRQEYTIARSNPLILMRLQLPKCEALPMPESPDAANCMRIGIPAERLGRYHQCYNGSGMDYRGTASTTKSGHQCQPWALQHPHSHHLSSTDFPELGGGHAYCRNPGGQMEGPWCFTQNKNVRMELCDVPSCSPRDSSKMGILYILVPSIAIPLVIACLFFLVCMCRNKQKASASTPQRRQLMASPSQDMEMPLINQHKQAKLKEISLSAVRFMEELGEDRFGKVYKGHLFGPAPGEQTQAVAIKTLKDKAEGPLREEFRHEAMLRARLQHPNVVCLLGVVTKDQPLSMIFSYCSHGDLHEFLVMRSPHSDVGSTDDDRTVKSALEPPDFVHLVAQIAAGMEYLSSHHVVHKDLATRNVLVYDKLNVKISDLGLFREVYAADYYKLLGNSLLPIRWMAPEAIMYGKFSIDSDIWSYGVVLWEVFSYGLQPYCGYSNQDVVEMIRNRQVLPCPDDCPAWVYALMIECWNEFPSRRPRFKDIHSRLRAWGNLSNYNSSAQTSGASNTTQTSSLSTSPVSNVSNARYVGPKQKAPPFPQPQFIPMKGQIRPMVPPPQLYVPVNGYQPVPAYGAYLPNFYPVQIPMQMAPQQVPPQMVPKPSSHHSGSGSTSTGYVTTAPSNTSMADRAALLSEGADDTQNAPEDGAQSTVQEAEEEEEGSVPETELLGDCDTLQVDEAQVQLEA
T5 sequence (Q01973 30-937): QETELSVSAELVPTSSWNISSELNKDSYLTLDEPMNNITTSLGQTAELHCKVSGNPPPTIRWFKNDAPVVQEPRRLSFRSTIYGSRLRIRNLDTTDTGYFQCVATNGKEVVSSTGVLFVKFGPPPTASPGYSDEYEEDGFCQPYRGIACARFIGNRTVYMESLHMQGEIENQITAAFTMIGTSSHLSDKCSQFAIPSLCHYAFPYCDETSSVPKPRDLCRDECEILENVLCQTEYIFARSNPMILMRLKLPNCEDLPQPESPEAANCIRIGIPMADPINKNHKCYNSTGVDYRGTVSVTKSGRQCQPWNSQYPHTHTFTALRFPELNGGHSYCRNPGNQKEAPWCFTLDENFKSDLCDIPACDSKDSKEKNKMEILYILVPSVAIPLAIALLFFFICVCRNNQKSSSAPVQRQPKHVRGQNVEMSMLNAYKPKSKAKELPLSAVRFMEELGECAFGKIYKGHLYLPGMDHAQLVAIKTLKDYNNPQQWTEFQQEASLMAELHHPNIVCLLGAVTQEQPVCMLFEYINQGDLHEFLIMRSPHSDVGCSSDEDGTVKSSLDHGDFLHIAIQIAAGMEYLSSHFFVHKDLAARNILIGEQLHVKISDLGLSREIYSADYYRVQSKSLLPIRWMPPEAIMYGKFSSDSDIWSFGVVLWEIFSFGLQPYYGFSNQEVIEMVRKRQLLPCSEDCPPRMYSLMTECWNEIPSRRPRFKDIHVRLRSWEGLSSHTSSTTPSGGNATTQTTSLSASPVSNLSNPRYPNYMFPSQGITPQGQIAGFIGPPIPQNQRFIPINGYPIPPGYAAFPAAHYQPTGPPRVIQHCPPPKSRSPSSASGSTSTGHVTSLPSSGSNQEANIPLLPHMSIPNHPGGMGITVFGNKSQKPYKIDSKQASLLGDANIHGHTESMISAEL

B1: anti-ROR1 IgG antibody BA6 (antibody, V domains shown)
VH: EVQLLESGGGLVQPGGSLRLSCAASGFTFSNYDMSWVRQAPGKGLEWVSAIYHSGSSKYYADSVKGRFTISRDNSKNTLYLQMNSLRAEDTAVYYCARGGNGAWDTGFDYWGQGTLVTVSS
VL: QSVLTQPPSASGTPGQRVTISCSGSSSNIGSNDVSWYQQLPGTAPKLLIYYDNNRPSGVPDRFSGSKSGTSASLAISGLRSEDEADYYCGAWDDSLSGYVFGGGTKLTVLG
notes: Full IgG form (human IgG1 constant region, lambda light chain), expressed in CHO-S cells
Turning to B1, the Kd in assay [1] is 0.0937 nM. The off-rate (koff) in [1] was determined as 0.000231 s⁻¹. Moreover, the kon in assay [1] turned out to be 2.47e+06 M⁻¹ s⁻¹. Also, the values for the binding result in assay [2], in assay [3] and in assay [4] were “binds”, “no binding” and “binds”, respectively. For the same molecule, the “EC50 (read off the curve)” value is approximately 0.05 nM in assay [5], approximately 0.2 nM in [6] and approximately 0.1 µg/mL in [7].

B2: anti-ROR1 IgG antibody CC9 (antibody, V domains shown)
VH: EVQLLESGGGLVQPGGSLRLSCAASGFTFSSYDMSWVRQAPGKGLEWVSGISHGSGNKYYADSVKGRFTISRDNSKNTLYLQMNSLRAEDTAVYYCAKRLSLRRRPSYYSDNAMDVWGQGTLVTVSS
VL: QSVLTQPPSASGTPGQRVTISCTGSSSNIGNNAVNWYQQLPGTAPKLLIYYDSNRPSGVPDRFSGSKSGTSASLAISGLRSEDEADYYCGAWDDSLSGYVFGGGTKLTVLG
notes: as for B1
B2: in assay [1], the Kd came to 0.754 nM, the koff was determined as 0.000551 s⁻¹ and the kon amounted to 731000 M⁻¹ s⁻¹. Moreover, in [8], the binding result is reported as “no binding”. Also, the binding result in assay [9] is recorded as “binds”. Also, in [4], the binding result is “binds”. For the same molecule, the “EC50 (read off the curve)” value in [6] is approximately 0.3 nM.

These data come from US20210069342A1 (LEGOCHEM BIOSCIENCES, published 2021).
